Data on three proteins can be found in paper PMC3413289 (Science signaling, 2012).

This data set deals with the molecule itself. As to the kind of experiment: SEC.

B1: coiled-coil PlexinA1_(cyto) fusion with the 1-residue linker (other)
chain: VKQLEDKVEELLSKNAHLENEVARLKKLVGSRDADRTLKRLQLQMDNLESRVALECKEAFAELQTDIHELTSDLDGAGIPFLDYRTYAMRVLFPGIEDHPVLKEMEVQANVEKSLTLFGQLLTKKHFLLTFIRTLEAQRSFSMRDRGNVASLIMTALQGEMEYATGVLKQLLSDLIEKNLESKNHPKLLLRRTESVAEKMLTNWFTFLLYKFLKECAGEPLFMLYCAIKQQMEKGPIDAITGEARYSLSEDKLIRQQIDYKTLTLNCVNPEHENAPEVPVKGLNCDTVTQVKEKLLDAVYKGVPYSQRPKAGDMDLEWRQGRMARIILQDEDVTTKIDNDWKRLNTLAHYQVTDGSSVALVPKQTSAYNISNSSTFTKSLSRYESMLRTASSPDSLRSRTPMITPDLESGTKLWHLVKNHDHLDQREGDRGSKMVSEIYLTRLLATKGTLQKFVDDLFETIFSTAHRGSALPLAIKYMFDFLDEQADKHQIHDSDVRHTWKSNCLPLRFWVNVIKNPQFVFDIHKNSITDACLSVVAQTFMDSCSTSEHKLGKDSPSNKLLYAKDIPNYKSWVERYYADIAKMPAISDQDMSAYLAEQSRLHLSQFNSMSALHEIYSYIAKYKDEILVALEKDEQARRQRLRSKLEQVVDTMALSS
For B1, the binding result is “binds”.

B2: coiled-coil PlexinA1_(cyto) fusion with the 7-residue linker (other)
chain: VKQLEDKVEELLSKNAHLENEVARLKKLVGSSGSSGSRDADRTLKRLQLQMDNLESRVALECKEAFAELQTDIHELTSDLDGAGIPFLDYRTYAMRVLFPGIEDHPVLKEMEVQANVEKSLTLFGQLLTKKHFLLTFIRTLEAQRSFSMRDRGNVASLIMTALQGEMEYATGVLKQLLSDLIEKNLESKNHPKLLLRRTESVAEKMLTNWFTFLLYKFLKECAGEPLFMLYCAIKQQMEKGPIDAITGEARYSLSEDKLIRQQIDYKTLTLNCVNPEHENAPEVPVKGLNCDTVTQVKEKLLDAVYKGVPYSQRPKAGDMDLEWRQGRMARIILQDEDVTTKIDNDWKRLNTLAHYQVTDGSSVALVPKQTSAYNISNSSTFTKSLSRYESMLRTASSPDSLRSRTPMITPDLESGTKLWHLVKNHDHLDQREGDRGSKMVSEIYLTRLLATKGTLQKFVDDLFETIFSTAHRGSALPLAIKYMFDFLDEQADKHQIHDSDVRHTWKSNCLPLRFWVNVIKNPQFVFDIHKNSITDACLSVVAQTFMDSCSTSEHKLGKDSPSNKLLYAKDIPNYKSWVERYYADIAKMPAISDQDMSAYLAEQSRLHLSQFNSMSALHEIYSYIAKYKDEILVALEKDEQARRQRLRSKLEQVVDTMALSS
On to B2, for which the binding result was “binds”.

B3: CC-L4-PlexinA1_(cyto) (other)
chain: VKQLEDKVEELLSKNAHLENEVARLKKLVGSSGSRDADRTLKRLQLQMDNLESRVALECKEAFAELQTDIHELTSDLDGAGIPFLDYRTYAMRVLFPGIEDHPVLKEMEVQANVEKSLTLFGQLLTKKHFLLTFIRTLEAQRSFSMRDRGNVASLIMTALQGEMEYATGVLKQLLSDLIEKNLESKNHPKLLLRRTESVAEKMLTNWFTFLLYKFLKECAGEPLFMLYCAIKQQMEKGPIDAITGEARYSLSEDKLIRQQIDYKTLTLNCVNPEHENAPEVPVKGLNCDTVTQVKEKLLDAVYKGVPYSQRPKAGDMDLEWRQGRMARIILQDEDVTTKIDNDWKRLNTLAHYQVTDGSSVALVPKQTSAYNISNSSTFTKSLSRYESMLRTASSPDSLRSRTPMITPDLESGTKLWHLVKNHDHLDQREGDRGSKMVSEIYLTRLLATKGTLQKFVDDLFETIFSTAHRGSALPLAIKYMFDFLDEQADKHQIHDSDVRHTWKSNCLPLRFWVNVIKNPQFVFDIHKNSITDACLSVVAQTFMDSCSTSEHKLGKDSPSNKLLYAKDIPNYKSWVERYYADIAKMPAISDQDMSAYLAEQSRLHLSQFNSMSALHEIYSYIAKYKDEILVALEKDEQARRQRLRSKLEQVVDTMALSS
Consider B3, for which the binding result is recorded as “binds”.
